Source: the nanobody polyreactivity screen of Harvey et al. (2022)

Experiment: yeast display, Sf9 membrane polyspecificity reagent, FACS + sequencing; frameworks hold sequencing errors
Summary of the method: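 Nanobodies came from a synthetic yeast display library in Saccharomyces cerevisiae BJ5465, induced with galactose for 36–48 hours and stained for 1 hour at 4 °C with 10% biotinylated, detergent-solubilized Sf9 membrane reagent. Cells were enriched on streptavidin microbeads and then FACS-sorted, with low and high (top ~1%) gates set on anti-HA fluorescence for expression and streptavidin fluorescence for reagent binding. Each polyreactivity label reflects the gate a clone came from. Genes were amplified by colony PCR, sequenced by MiSeq 2 × 250 and filtered by CDR length.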
With “QVQIVESGGGLVQAGGSLRLCCAASGRTFYGSKMGWYRQAPGKESELVAAISRNGASTFYADSVKRRFTISRDNAKKSVYLQINILKPEYTGVYYFNARSWRHTDTSFEYWGQGTQVTVSS” the “polyreactivity (PSR sort gate)” value was “high polyreactivity”.
In the case of “QVQIVESGGGLVQAGGSLRLRCAASGITFSIYAMGWYRQAPGKERELVAAIDSGGGTNYADSVKGRFTISLDNAKNTVYLQMNSLKAEDTAVYYCAADFLKVDWYDYWGQGTQVTVSS”, the “polyreactivity (PSR sort gate)” value is reported as “low polyreactivity”.
For “QVQIVESGGGLVQAGGSLRLRCAASGRIVKYAMGWYRHAPGKERELVAAINSGGSTKYADSVKGRFTISRDNAKITVYLQMICLKPEDTAVYYCAARILYHMDLGQGTQVTVSS”, the “polyreactivity (PSR sort gate)” value was “high polyreactivity”.
With “QVQIVESGGGLVQAGGSLRLSCAASGFIFQTNVMGWYRQAPGKERELVAAISSGDSTYYADSVKGRFTISRDNAKNTVYLQMNSLKPEDTAVYYCAADVLGTTTTVGGFNYWGQGTQVTVSS” the “polyreactivity (PSR sort gate)” value was “low polyreactivity”.
In the case of “QVQIVESGGGLVQAGGSLRLSCAASGFIFYSYAMGWYRQAPGKEREFVASISGRTGSTYYADSVKVRFTISRDNAKNTVYLQMNSLKPEDTAVYYCNARIVHSFRYDYWGQGTQVTVSS”, the “polyreactivity (PSR sort gate)” value is reported as “low polyreactivity”.
In the case of “QVQIVESGGGLVQAGGSLRLSCAASGFILNYYGMGWYRQAPGKERELVATISRGASTNYADSVKGRFTISRDNAKNTVYLQMISLKPEETEVYSCAKDYGDWGQGTQVTVSS”, the “polyreactivity (PSR sort gate)” value is reported as “low polyreactivity”.
With “QVQIVESGGGLVQAGGSLRLSCAASGFTFALYAMGWYRQEPGKEREWVAANTRSGRTKYADSVKGRFTISRDNAKNTVYLQMNSLKPEDTAVYYCAADFRYYVTTRFNYWGQGTQVTVSS” the “polyreactivity (PSR sort gate)” value was “high polyreactivity”.
For “QVQIVESGGGLVQAGGSLRLSCAASGFTFVYYVMGWYRPAPGKERELVAAINSGGGSTYYADSVKGRFTISRDKAKNTVYLQMKSLKPEDTAVYYCNARVRVRLGRNWSSYYYWGQGTQVTVSS”, the “polyreactivity (PSR sort gate)” value was “high polyreactivity”.
With “QVQIVESGGGLVQAGGSLRLSCAASGIIFGRNTMGWYRQAPGKERELVAGISSNGGSTYYADSVKGRFTISRDNAKNTVYLQMNSLKPEDTAVYYCAAYYNIPDRRRVGYDYWGQGTQVTVSS” the “polyreactivity (PSR sort gate)” value was “high polyreactivity”.
For “QVQIVESGGGLVQAGGSLRLSCAASGIIFYNYAMGWYREAPGKERELVAAITGTGSRTYYADSVKGRFTISRDNAKNTVYLQMNSLNPEDTAVYYCAVNTRRYWYGYWGQGTQVTVSS”, the “polyreactivity (PSR sort gate)” value was “high polyreactivity”.
With “QVQIVESGGGLVQAGGSLRLSCAASGNTFNYYTMGWYIQAPGKERELVAAIRSGGRTYYADSVKGRFTISRDNANNSVSLQMNSLKPEDTAVYFCAALAVTYRYDYWGQGTQLTVSS” the “polyreactivity (PSR sort gate)” value was “high polyreactivity”.
For “QVQIVESGGGLVQAGGSLRLSCAASGRIFGPYAMVWYRQAPGKERELVAAIRASSSSTYYADSVKGRFTISRDNAKNTVYLQMNSLKPEDTAVYYCAADWYYGYAWKYGYWGQVTQVTVSS”, the “polyreactivity (PSR sort gate)” value was “low polyreactivity”.
With “QVQIVESGGGLVQAGGSLRLSCAASGRIFNIYAMGWYRQAPGKERELVADIRWNGGSTYYADSVKGRFTISRDNAKNTVYLQMNSLKPEDTAVYYCAAARRRRFYDYYNAWYDVDYWGQGTQVTVSS” the “polyreactivity (PSR sort gate)” value was “low polyreactivity”.
With “QVQIVESGGGLVQAGGSLRLSCAASGRIFRNTMGWYIQAPGKERDLVAAITDTTDSTYYADSVKGRFTISRDNAKNTVYLQMNSLKPEDSAVYYCAARYGGYVNRPYYYWGHGTQVTVSS” the “polyreactivity (PSR sort gate)” value was “low polyreactivity”.
With “QVQIVESGGGLVQAGGSLRLSCAASGRIFSQNTMGWYRQAPGKERELVAVISWRGGRTSYADSVKGRFTISRDNAQNTVYLQMNSLKPEDTAVYYCNAKRYAGSNYDYWGQGTQVTVSS” the “polyreactivity (PSR sort gate)” value was “high polyreactivity”.
In the case of “QVQIVESGGGLVQAGGSLRLSCAASGRISEANAMGRYRQATWKERELVAAIDFSDGSTYYADSVKGRFTISRDNAKNTVYLQMNSLKPEDTAVYYCAADDQYYPYDYWGLGTQVTVSS”, the “polyreactivity (PSR sort gate)” value is reported as “low polyreactivity”.
With “QVQIVESGGGLVQAGGSLRLSCAASGRTFNQYAMGWYRQAPVKERELVAAISASGGNTYYADSVKGRFTISRDNAKNNVYVQMNSLKQEDTEVYYCADKQSSSRYYGNDYWGQGTQVTVSS” the “polyreactivity (PSR sort gate)” value was “high polyreactivity”.
With “QVQIVESGGGLVQAGGSLRLSCAASGRTFRENAMGWYRQAPGKERELVAAAISSGDGTNYADSVKGRFTISRDYAKNTVYLQMNSLQPEDTAVYYCAADGPRDSYDYWGQGTQVTVSS” the “polyreactivity (PSR sort gate)” value was “low polyreactivity”.
With “QVQIVESGGGLVQAGGSLRLSCAASGRTFTAYAMGWYRQAPGKERELVAAITTSGGTTYYADSVKGRFTISRDNAKNTVYLQMKSLKPEDTAVYYCAADVVVSWWLIYDYWGQGTQVTVSS” the “polyreactivity (PSR sort gate)” value was “low polyreactivity”.
With “QVQIVESGGGLVQAGGSLRLSCAASGRTVGYNPMGWYRQAPGKETELVAVIRSGGSTYYADSVKGRFTISRDNAQYSVYLQLHSLIPEDSEVYYCAATGLYNVTSPYSYKYDYWGQCTQVTVSS” the “polyreactivity (PSR sort gate)” value was “low polyreactivity”.
In the case of “QVQIVESGGGLVQAGGSLRLSCAASGSICTHNDMGWYRPSTWKERELVAAISTSGGRTYDADSVKGSFTISRDTAKNTVYLPMNSLKPEDTAVYYCNDRSVRSRYDYWGQGTQVTVSS”, the “polyreactivity (PSR sort gate)” value is reported as “high polyreactivity”.
For “QVQIVESGGGLVQAGGSLRLSCAASGSIFFYYSMGWYRQAPGKERELVAAISVGGSTYYADSVKGRFTISRDNAKNTVYLQMNSLKPEDTAVYSFNAVPAKGYVTVVRYYYWGQGTQVTVSS”, the “polyreactivity (PSR sort gate)” value was “low polyreactivity”.
With “QVQIVESGGGLVQAGGSLRLSCAASGSIFGVNAMGWYRQAPGKERELVASITGGDSTNYADSVKGRFTISRDNAKNTVYLQMNSLKPEDTAVYYCAKDHYYRYEEGDYWGQGTQVTVSS” the “polyreactivity (PSR sort gate)” value was “low polyreactivity”.
With “QVQIVESGGGLVQAGGSLRLSCAASGSIFITYAMGWYRPAPGKERELVAAIRDSGDRTYYADSVKGRFTISRDNAKNTVYLQMNSLKPEDTAVYYCNARWQEPLKYDYWGQGTQVTVSS” the “polyreactivity (PSR sort gate)” value was “low polyreactivity”.
In the case of “QVQIVESGGGLVQAGGSLRLSCAASGSIFKYYAMGSYRQAPVKERELVAAISSGGSTKYADSVKARFTISRDNEKNTVYLHMTRLIPEDTAVYYCAARDPSRHARRAYDYWGQGTQVTVSS”, the “polyreactivity (PSR sort gate)” value is reported as “low polyreactivity”.
In the case of “QVQIVESGGGLVQAGGSLRLSCAASGSIFRYYAMAWYRQETGKERELVARISSGVSTNYADSVKGRFTISRDNAKNSVYLQMNSLKPEDTAVYYCNARTGWTGRGRYSLRYDYWGQGTQVTVSS”, the “polyreactivity (PSR sort gate)” value is reported as “high polyreactivity”.
For “QVQIVESGGGLVQAGGSLRLSCAASGSIFSRYAMGWYRQAPGKERELVAAISGRGGGTYYADSVKGRFTISRDNAKNTVYLQMNSLKPEDTAVYYCAAQLGRPAYSRVSWRAYYYWGQGTQVTVSS”, the “polyreactivity (PSR sort gate)” value was “low polyreactivity”.
In the case of “QVQIVESGGGLVQAGGSLRLSCAASGSIFSVYAMGWYRQAPGKERELVAAIRYGDTSTYYADSVKGRFTISRDNAKNTVYFQMNSLKPEDTAVYYCAADLYAYEREYWGQGTQVTVSS”, the “polyreactivity (PSR sort gate)” value is reported as “low polyreactivity”.
With “QVQIVESGGGLVQAGGSLRLSCAASGSIFYRYAMGWYRQAPGKEREFVAAIDYSGSITRYADSVKGRFTISRDNAKNTVYLQMNSLKPEDTAVYYCAARSYAKDWGGYNYWGQGTQVTVSS” the “polyreactivity (PSR sort gate)” value was “high polyreactivity”.
In the case of “QVQIVESGGGLVQAGGSLRLSCAASGSILYEYAMGWYRQAPGKERELVAAISSGDSTNYADSVKGRFTISRDNAKNTVYLQMNSLNPEDTAVYDCNRDFPRERFTYKFDYWGQGTQVTVSS”, the “polyreactivity (PSR sort gate)” value is reported as “low polyreactivity”.
